The source of these data is PMC8835810.

The target of the assay is E117K mutant of rabbit muscle pyruvate kinase (rabbit). The experiment in a line: crystal structure; E117K mutant at 7 mg/mL in 50 mM Tris pH 7.0 with 1.0 mM ATP, 1.0 mM MgCl2, 0.2 mM oxalate; hanging drop; 0.2 M magnesium acetate, 0.1 M sodium cacodylate pH 6.5, 18% w/v PEG 8000; space group P212121, four copies in the asymmetric unit.

As for “E117K mutant of rabbit muscle pyruvate kinase (enzyme)”, the stoichiometry N came out at 4.
